For one test, the target named is T1, Human Siglec-3 (human, UniProt P20138 18-364).
T1 construct: Expressed on transfected CHO cells; also called HuSiglec-3; CD33
The test can be described thus: flow cytometry, CHO transfectants. On the technique in general: In flow cytometry, cells or beads pass a laser one at a time.

The next test addresses T2, Human Siglec-5 (human, UniProt O15389 17-551).
T2 construct: Expressed on transfected CHO cells; also called HuSiglec-5
T2 sequence: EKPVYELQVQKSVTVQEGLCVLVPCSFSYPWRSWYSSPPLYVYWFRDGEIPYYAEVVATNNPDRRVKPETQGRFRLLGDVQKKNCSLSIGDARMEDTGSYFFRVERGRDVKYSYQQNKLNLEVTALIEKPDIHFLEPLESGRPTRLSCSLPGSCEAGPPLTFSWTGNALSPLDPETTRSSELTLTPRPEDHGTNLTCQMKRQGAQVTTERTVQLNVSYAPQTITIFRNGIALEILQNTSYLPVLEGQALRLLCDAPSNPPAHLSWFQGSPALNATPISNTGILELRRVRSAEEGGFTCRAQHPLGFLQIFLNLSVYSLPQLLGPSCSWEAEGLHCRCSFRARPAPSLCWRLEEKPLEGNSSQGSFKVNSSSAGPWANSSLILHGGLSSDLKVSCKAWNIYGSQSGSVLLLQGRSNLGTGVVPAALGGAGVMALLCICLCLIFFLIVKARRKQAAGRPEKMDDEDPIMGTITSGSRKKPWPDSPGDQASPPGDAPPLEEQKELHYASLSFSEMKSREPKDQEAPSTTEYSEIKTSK
The test can be described thus: flow cytometry, CHO transfectants.

The next test deals with T3, Human Siglec-6 (human, UniProt O43699 27-453).
T3 construct: Expressed on transfected CHO cells; also called HuSiglec-6
T3 sequence (O43699 other isoform, or with tags, fused parts or gaps): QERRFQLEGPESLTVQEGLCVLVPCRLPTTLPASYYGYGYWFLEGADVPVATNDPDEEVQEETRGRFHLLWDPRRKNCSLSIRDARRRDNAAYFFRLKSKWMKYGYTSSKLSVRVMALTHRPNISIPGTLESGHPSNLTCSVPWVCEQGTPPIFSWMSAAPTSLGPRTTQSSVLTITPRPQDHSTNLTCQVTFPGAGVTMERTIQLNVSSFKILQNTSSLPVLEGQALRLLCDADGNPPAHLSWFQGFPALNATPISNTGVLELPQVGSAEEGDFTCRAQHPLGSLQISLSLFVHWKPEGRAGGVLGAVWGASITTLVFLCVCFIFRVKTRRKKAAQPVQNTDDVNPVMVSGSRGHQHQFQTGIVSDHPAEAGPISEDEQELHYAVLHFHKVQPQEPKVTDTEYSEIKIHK
Nature of the test: flow cytometry, CHO transfectants.

Another test deals with T4, Human Siglec-8 (human, UniProt Q9NYZ4 17-499).
T4 construct: Expressed on transfected CHO cells; also called HuSiglec-8
T4 sequence (Q9NYZ4 17-499): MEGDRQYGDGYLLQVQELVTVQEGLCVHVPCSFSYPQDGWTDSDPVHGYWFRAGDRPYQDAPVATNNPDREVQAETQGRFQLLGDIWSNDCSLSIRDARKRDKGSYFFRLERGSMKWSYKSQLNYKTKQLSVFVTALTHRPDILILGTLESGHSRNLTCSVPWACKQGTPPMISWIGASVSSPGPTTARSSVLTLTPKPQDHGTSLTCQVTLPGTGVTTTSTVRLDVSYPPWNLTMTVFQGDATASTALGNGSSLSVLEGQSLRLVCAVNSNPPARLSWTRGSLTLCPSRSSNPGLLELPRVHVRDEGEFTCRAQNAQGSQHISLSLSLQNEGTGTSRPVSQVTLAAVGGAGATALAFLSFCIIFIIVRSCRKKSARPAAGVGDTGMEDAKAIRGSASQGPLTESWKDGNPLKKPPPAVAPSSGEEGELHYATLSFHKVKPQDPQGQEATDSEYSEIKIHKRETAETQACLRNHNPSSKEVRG
The test can be described thus: flow cytometry, CHO transfectants.

In another test the target is T5, Human Siglec-10 (human, UniProt Q96LC7 17-697).
T5 construct: Expressed on transfected CHO cells; also called HuSiglec-10
T5 sequence: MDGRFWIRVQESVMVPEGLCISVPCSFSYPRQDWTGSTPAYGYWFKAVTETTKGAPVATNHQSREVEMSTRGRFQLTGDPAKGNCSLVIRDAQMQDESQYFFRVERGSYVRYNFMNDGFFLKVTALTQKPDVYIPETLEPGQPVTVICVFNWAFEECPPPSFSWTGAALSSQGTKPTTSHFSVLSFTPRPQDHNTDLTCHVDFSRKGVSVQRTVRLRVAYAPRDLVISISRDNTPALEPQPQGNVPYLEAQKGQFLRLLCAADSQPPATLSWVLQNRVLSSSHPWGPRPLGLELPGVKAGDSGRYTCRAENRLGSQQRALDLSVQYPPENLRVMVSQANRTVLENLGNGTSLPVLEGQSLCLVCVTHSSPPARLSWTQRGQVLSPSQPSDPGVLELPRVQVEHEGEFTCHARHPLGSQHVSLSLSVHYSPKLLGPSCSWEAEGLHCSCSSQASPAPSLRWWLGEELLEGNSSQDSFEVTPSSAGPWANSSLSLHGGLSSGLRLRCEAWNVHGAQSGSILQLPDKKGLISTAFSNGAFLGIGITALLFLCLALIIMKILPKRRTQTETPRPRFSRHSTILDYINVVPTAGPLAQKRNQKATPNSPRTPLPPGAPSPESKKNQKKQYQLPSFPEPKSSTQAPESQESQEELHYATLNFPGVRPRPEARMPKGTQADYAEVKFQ
The test can be described thus: flow cytometry, CHO transfectants.

The target in a further test is T6, Human Siglec-11 (human, UniProt Q96RL6 29-698).
T6 construct: Expressed on transfected CHO cells; also called HuSiglec-11
T6 sequence: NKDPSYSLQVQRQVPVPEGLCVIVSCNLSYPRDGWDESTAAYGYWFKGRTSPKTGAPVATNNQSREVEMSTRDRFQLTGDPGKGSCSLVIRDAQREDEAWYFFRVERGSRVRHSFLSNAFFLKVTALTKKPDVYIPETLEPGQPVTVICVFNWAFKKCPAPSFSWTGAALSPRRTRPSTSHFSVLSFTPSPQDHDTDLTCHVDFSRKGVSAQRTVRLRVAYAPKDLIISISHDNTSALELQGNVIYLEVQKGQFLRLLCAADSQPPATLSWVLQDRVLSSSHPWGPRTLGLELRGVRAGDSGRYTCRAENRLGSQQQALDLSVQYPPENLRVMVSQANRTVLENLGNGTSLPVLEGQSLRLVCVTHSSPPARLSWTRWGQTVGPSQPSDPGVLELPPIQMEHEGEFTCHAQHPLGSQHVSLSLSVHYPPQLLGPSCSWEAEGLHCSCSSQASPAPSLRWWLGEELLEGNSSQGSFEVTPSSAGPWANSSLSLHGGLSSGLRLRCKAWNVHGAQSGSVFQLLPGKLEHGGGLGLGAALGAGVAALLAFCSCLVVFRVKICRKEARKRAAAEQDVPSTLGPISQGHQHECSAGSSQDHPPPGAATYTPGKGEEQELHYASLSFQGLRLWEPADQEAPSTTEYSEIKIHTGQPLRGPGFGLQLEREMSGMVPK
The test can be described thus: flow cytometry, CHO transfectants.

For the next test, the target named is T7, Human Siglec-12 (human, UniProt Q96PQ1 19-595).
T7 construct: Expressed on transfected CHO cells; also called HuSiglec-12
T7 sequence (Q96PQ1 19-595): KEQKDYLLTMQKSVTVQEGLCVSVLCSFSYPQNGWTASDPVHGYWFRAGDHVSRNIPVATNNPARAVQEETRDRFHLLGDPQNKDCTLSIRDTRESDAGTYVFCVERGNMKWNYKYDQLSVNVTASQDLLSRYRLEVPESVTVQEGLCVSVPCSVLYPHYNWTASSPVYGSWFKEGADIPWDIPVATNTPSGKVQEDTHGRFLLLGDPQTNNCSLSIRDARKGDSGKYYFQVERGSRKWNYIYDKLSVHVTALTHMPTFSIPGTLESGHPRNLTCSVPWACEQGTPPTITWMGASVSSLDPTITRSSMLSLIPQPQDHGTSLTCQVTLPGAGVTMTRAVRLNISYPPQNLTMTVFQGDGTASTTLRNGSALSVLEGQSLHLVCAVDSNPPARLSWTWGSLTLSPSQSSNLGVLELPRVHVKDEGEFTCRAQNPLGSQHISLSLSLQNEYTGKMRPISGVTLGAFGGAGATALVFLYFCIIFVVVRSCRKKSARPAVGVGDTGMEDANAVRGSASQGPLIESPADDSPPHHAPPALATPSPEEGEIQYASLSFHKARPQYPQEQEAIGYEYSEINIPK
Nature of the test: flow cytometry, CHO transfectants.

The target of a further test is T8, Human Siglec-9 mutant M2 (human, UniProt Q9Y336 18-463).
T8 construct: Expressed on HEK293T cells; also called Mutant 2
T8 sequence (Q9Y336 other isoform, or with tags, fused parts or gaps mutant): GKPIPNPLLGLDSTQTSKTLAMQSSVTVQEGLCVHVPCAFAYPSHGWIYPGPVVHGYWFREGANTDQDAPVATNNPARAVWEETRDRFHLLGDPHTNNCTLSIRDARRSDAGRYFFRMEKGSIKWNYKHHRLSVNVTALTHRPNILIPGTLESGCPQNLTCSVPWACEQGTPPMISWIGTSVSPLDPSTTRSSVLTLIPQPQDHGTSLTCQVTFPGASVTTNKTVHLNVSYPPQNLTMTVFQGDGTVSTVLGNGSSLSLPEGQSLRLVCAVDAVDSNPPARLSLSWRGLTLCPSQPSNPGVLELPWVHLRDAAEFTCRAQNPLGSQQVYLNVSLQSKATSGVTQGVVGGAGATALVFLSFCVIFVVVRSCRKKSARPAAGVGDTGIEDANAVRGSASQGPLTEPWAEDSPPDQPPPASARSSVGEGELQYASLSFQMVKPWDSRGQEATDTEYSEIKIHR
The test can be described thus: flow cytometry, HEK293T transfectants.

The target in another test is T9, Human Siglec-9 mutant M3 (human, UniProt Q9Y336 18-463).
T9 construct: Expressed on HEK293T cells; also called Mutant 3
T9 sequence (Q9Y336 other isoform, or with tags, fused parts or gaps mutant): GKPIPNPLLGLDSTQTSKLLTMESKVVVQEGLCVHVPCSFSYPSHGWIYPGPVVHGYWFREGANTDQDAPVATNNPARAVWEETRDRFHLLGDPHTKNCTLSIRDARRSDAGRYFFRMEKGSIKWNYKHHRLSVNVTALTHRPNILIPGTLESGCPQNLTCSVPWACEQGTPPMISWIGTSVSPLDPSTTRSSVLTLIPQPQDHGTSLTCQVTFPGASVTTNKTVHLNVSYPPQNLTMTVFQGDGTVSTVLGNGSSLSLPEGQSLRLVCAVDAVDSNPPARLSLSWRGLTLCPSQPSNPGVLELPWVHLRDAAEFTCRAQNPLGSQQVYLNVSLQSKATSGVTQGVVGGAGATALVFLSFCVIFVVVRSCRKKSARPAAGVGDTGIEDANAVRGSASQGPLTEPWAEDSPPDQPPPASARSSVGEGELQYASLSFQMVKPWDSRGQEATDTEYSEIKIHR
The test can be described thus: flow cytometry, HEK293T transfectants.

The next test has as its target T10, Human Siglec-9 mutant M5 (human, UniProt Q9Y336 18-463).
T10 construct: Expressed on HEK293T cells; also called Mutant 5
Nature of the test: flow cytometry, HEK293T transfectants.

The target of the next test is T11, Human Siglec-9 mutant M6 (human, UniProt Q9Y336 18-463).
T11 construct: Expressed on HEK293T cells; also called Mutant 6
T11 sequence (Q9Y336 other isoform, or with tags, fused parts or gaps mutant): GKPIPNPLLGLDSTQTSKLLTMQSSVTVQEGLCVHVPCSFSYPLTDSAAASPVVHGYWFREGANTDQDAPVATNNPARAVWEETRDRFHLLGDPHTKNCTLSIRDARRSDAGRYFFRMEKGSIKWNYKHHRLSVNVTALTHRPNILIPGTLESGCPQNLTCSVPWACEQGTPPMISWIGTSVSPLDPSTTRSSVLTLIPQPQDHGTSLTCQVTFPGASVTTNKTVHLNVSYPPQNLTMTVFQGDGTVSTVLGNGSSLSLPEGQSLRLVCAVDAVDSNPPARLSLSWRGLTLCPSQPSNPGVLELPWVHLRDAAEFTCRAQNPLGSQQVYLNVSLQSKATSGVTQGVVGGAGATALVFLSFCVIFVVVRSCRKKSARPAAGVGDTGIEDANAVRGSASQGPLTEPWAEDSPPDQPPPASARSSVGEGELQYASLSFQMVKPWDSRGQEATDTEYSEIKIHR
Nature of the test: flow cytometry, HEK293T transfectants.

For test [1], the target named is T12, Human Siglec-9 mutant M14 (human, UniProt Q9Y336 18-463).
T12 construct: Expressed on HEK293T cells; also called Mutant 14
T12 sequence (Q9Y336 other isoform, or with tags, fused parts or gaps mutant): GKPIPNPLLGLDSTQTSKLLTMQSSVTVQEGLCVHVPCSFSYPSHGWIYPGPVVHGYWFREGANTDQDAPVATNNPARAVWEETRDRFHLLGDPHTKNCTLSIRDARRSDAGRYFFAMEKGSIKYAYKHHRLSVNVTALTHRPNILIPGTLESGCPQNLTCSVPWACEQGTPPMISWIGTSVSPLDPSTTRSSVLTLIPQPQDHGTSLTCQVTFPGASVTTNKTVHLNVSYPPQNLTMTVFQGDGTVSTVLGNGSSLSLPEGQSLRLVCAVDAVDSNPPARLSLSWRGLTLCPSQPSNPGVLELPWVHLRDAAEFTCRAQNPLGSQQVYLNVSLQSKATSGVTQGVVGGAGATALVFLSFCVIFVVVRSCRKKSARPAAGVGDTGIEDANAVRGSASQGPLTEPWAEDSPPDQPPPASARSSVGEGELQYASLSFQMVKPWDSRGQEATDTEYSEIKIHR
Nature of the test: flow cytometry, HEK293T transfectants.

The target of test [2] is T13, Human Siglec-9 mutant M15 (human, UniProt Q9Y336 18-463).
T13 construct: Expressed on HEK293T cells; also called Mutant 15
T13 sequence (Q9Y336 other isoform, or with tags, fused parts or gaps mutant): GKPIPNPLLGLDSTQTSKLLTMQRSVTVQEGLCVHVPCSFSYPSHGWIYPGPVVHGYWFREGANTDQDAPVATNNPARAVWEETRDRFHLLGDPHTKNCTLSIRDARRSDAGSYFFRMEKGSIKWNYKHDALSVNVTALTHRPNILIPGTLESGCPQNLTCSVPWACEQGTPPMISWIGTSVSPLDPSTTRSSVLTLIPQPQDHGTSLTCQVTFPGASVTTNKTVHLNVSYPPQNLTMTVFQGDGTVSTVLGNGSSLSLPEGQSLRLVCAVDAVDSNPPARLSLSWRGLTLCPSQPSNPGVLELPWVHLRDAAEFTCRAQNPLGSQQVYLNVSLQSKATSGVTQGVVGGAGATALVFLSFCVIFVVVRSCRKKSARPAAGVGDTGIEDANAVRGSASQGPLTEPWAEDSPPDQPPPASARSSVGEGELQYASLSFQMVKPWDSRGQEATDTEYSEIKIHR
The test can be described thus: flow cytometry, HEK293T transfectants.

Test [3] has as its target T14, Human Siglec-9 N-terminal V-set Ig-like domain (human).
T14 construct: expressed on HEK293T cells
Nature of the test: flow cytometry, HEK293T cells expressing single Siglec-9 domains.

T14 sequence (chain, as listed by the source limits assumed): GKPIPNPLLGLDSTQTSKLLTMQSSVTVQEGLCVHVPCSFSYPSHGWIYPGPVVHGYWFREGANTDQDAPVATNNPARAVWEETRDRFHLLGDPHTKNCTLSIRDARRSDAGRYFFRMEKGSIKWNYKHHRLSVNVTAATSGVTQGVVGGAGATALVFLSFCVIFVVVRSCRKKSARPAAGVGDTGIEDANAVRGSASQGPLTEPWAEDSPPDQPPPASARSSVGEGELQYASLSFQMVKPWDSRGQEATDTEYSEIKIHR
T10 sequence (Q9Y336 other isoform, or with tags, fused parts or gaps mutant): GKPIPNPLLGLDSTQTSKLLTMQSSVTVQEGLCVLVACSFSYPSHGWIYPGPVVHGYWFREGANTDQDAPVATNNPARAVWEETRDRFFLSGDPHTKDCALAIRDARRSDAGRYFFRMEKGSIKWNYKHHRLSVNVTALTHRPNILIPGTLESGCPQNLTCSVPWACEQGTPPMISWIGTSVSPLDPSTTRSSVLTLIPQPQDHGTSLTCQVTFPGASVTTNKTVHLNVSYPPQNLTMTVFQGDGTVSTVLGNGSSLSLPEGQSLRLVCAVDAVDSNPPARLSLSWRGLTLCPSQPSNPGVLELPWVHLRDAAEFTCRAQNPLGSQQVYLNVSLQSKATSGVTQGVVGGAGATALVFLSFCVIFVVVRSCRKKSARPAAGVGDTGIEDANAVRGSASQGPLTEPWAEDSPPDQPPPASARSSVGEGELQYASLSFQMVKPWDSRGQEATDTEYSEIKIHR
T1 sequence (P20138 18-364 R69G): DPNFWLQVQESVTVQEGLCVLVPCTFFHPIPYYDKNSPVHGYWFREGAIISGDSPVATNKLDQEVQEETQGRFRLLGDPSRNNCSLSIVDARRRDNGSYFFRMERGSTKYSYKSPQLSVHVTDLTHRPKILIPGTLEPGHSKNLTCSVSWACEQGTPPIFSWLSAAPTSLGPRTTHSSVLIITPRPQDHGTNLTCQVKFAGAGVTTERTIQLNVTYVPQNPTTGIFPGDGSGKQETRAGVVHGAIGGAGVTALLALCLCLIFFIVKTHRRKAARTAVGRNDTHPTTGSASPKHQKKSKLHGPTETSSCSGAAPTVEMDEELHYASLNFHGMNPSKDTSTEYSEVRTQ

B1: mAb1 (antibody, human IgG1, V domains shown)
VH: DVQLQESGPGLVKPSQSLSLTCTVTGYSITGGFAWNWIRQFPGNTLEWMGYIGYGGSTSYNPSLNSRISITRDTSKNHFFLQFNSVTTDDSATYYCARGDYLFAYWGQGTLVTVSA
VL: DIVMTQSHKFMSTSVGDRVSITCKASQDVNTAVAWYQQKPGQSPKLLIYSASYRYTGVPDRFTGSGSGTDFTFTISSVQAEDLAVYYCQQHYSTPRTFGGGTKLEIK
As to B1, the binding result with Human Siglec-3, with Human Siglec-5, with Human Siglec-6, in the test with Human Siglec-8, with Human Siglec-10 and in the test with Human Siglec-11 was “no binding” throughout. In addition, the binding result (with Human Siglec-12; with Human Siglec-9 mutant M2; with Human Siglec-9 mutant M3; in the test with Human Siglec-9 mutant M5; in the test with Human Siglec-9 mutant M6; in test [1]) was “binds” in each case. Further, the binding result in [2] and in test [3] was “binds” each time.

B2: mAb3 (antibody, human IgG1, V domains shown)
VH: EVQLLETGPGLVKPSQSLSLTCTVTGYSITGGFAWNWIRQFPGNTLEWMGYIGYGGSTSYNPSLNSRISITRDTSKNHFFLQFNSVTTEDSATYYCARGDYLFAYWGQGTLVTVSA
VL: DILMTQSPASLSASVGETVSITCRASGNIHNYLAWYLQRQGKSPQLLVYNAKTLADGVPSRFSGTGSGTQFSLKINSLQPEDFGSYYCQHFWSTPRTFGGGTKLEIK
As to B2, the binding result with Human Siglec-3, with Human Siglec-5, with Human Siglec-6, with Human Siglec-8, in the test with Human Siglec-10 and with Human Siglec-11 was “no binding” throughout. Moreover, the binding result (with Human Siglec-12; with Human Siglec-9 mutant M2; with Human Siglec-9 mutant M3; with Human Siglec-9 mutant M5; in the test with Human Siglec-9 mutant M6; in [1]) was “binds” in each case. In addition, the binding result in test [2] and in test [3] was “binds” each time.

B3: mAb2 (antibody, human IgG1, V domains shown)
VH: EVQLQESGPGLVKPSQSLSLTCTVTGYSITGGFAWNWIRQFPGNTLEWMGYIGYGGSTSYNPSLNSRISITRDTSKNHFFLQFNSVTTEDSATYYCARGDYLFAYWGQGTLVTVSA
VL: DIVMTQSHKFMSTSVGDRVSITCKASQDVNTAVAWYQQKPGQSPKLLIYSASYRYTGVPDRFTGSGSGTDFTFTISSVQAEDLAVYYCQQHYSTPRTFGGGTKLEIK
In the case of B3, the binding result with Human Siglec-3, in the test with Human Siglec-5, in the test with Human Siglec-6, with Human Siglec-8, with Human Siglec-10 and with Human Siglec-11 was “no binding” in each case. Besides, the binding result (with Human Siglec-12; with Human Siglec-9 mutant M2; with Human Siglec-9 mutant M3; in the test with Human Siglec-9 mutant M5; with Human Siglec-9 mutant M6; in [1]) was “binds” throughout. Besides, the binding result in test [2] and in test [3] was “binds” in each case.

B4: mAbC (antibody, human IgG1, V domains shown)
VH: QIQLVQSGPELKKPGETVKISCKASGYTFTNYEMNWVKEAPGKGLKWMGWINTYTGESTYADDFKGRFAFSLETSASTVYLQINNLKDEDVATYFCVRDDYGRSYGFAYWGQGTLVTVSA
VL: NIVLTQSPASLTVSLGQRANISCRASESVDSYGNSFMHWYQQKPGQPPKLLIYLASKLESGVPARFSGSGSRTDFTLTIDPVETDDAATYYCHQNNEDPPWTFGGGTKLEIK
Regarding B4, the binding result with Human Siglec-3, with Human Siglec-5, with Human Siglec-6, in the test with Human Siglec-8, with Human Siglec-10 and with Human Siglec-11 was “no binding” throughout. The binding result with Human Siglec-12 is on record as “no binding”; with Human Siglec-9 mutant M2, “binds”; with Human Siglec-9 mutant M3, “binds”; with Human Siglec-9 mutant M5 it was “binds”; with Human Siglec-9 mutant M6 it was “binds”; in test [1], “binds”. Besides, the binding result in [2] and in test [3] was “binds” throughout.

B5: mAbE (antibody, human IgG1, V domains shown)
VH: DVQLVESGGGLVQPGGSRKLSCAASGFTFSTFGMHWVRQAPEKGLEWVAYISSGSNAIYYADTVKGRFTISRDNPKNTLFLQMTSLRSEDTAMYYCASPGYGAWFAYWGQGTLVTVSA
VL: ENVLTQSPAIMSASPGEKVTMTCRASSSVSSAYLHWYQQKSGASPKLWIYSTSNLASGVPARFSGSGSGTSYSLTISSVEAEDAATYYCQQYSAYPYTFGGGTKLEIK
Regarding B5, the binding result in the test with Human Siglec-3, in the test with Human Siglec-5, with Human Siglec-6, with Human Siglec-8, in the test with Human Siglec-10 and with Human Siglec-11 was “no binding” each time. The binding result in the test with Human Siglec-12 is recorded as “no binding”; with Human Siglec-9 mutant M2, “binds”; with Human Siglec-9 mutant M3, “binds”; with Human Siglec-9 mutant M5 it was “binds”; with Human Siglec-9 mutant M6, “binds”; in [1], “binds”. Besides, the binding result in test [2] and in [3] was “binds” throughout.

The values above are taken from US20200369765A1 (INNATE PHARMA, published 2020).
